{"source": "patent US20230137139A1", "about": "“BIOSYNTHESIS OF CANNABINOIDS AND C[…]” (priority 2020, published 2023)", "molecules": {"B1": {"name": "t861589 (protein)", "chain": "MGNTTSIAGRDCLISALGGNSALAVFPNELLWTADVHEYNLNLPVTPAAITYPETAAQIAGVVKCASDYDYKVQARSGGHSFGNYGLGGADGAVVVDMKHFTQFSMDDETYEAVIGPGTTLNDVDIELYNNGKRAMAHGVCPTIKTGGHFTIGGLGPTARQWGLALDHVEEVEVVLANSSIVRASNTQNQDVFFAVKGAAANFGIVTEFKVRTEPAPGLAVQYSYTFNLGSTAEKAQFVKDWQSFISAKNLTRQFYNNMVIFDGDIILEGLFFGSKEQYDALGLEDHFAPKNPGNILVLTDWLGMVGHALEDTILKLVGNTPTWFYAKSLGFRQDTLIPSAGIDEFFEYIANHTAGTPAWFVTLSLEGGAINDVAEDATAYAHRDVLFWVQLFMVNPLGPISDTTYEFTDGLYDVLARAVPESVGHAYLGCPDPRMEDAQQKYWRTNLPRLQELKEELDPKNTFHHPQGVMPA"}, "B2": {"name": "t861590 (protein)", "chain": "B1 chain with V25A, A57E, V374I"}, "B3": {"name": "t861558 (protein)", "chain": "B1 chain with V25A, A57E, V374I"}, "B4": {"name": "t861574 (protein)", "chain": "B1 chain with V25A, A57E, V62I, V374I"}, "B5": {"name": "t861571 (protein)", "chain": "B1 chain with L398V"}, "B6": {"name": "t861554 (protein)", "chain": "MGNTTSIAAGRDCLISAVGAANVAFQDQLLYQATAVQPYNLNIPVTPAAVTYPQSADEIAAVVKCASEYGYKVQARSGGHSFGNYGLGGQDGAIVIEMKHFSQFSMDESTFIATIGPGITLGDLDTDLYNAGHRAMAHGICPTIRTGGHLTVGGLGPTARQWGLALDHVEEVEVVLANSSIVRASDTQNQDLFFAIKGAAASFGIVTEFKVRTEQAPGMAVQYSYTFHLGTSAEKAKFVKDWQAFIAQENLTWKFYTNLVIFDDQIILEGIYFGTKEEYDSLGLEQRFPPTDAGTVLILTDWLAMIGHGLEDTILKLVGDTPTWFYAKSLGFTPRALIPDSAIDEFFDYIHENNPGTLAWFVTLSLEGGAINAVPEDATAYGHRDVLFWFQLFVINPLGPISQTTYGFADGLYDVLAQAVPESASHAYMGCPDPRMPNAQRAYWRSNLPKLEELKGYLDPEDIFHNPQGVVPS"}, "B7": {"name": "t861579 (protein)", "chain": "MGNTTSIAAGRDCLVSAVGPAHVTFQDALLYQTTAVDPYNLNIPVTPAAVTYPQSAEEIAAVVKCASDYDYKVQARSGGHSFGNYGLGGQNGAIVVDMKHFSQFSMDESTFVATIGPGTTLGDLDTELYNAGGRAMAHGICPTIRTGGHLTVGGLGPTARQWGLALDHIEEVEVVLANSSIVRASNTQNQDILFAVKGAAASFGIVTEFKVRTQEAPGLAVQYSFTFNLGSPAQKAKLVKDWQAFIAQENLSWKFYSNLVIFDGQIILEGIFFGSKEEYDELDLEKRFPTSEPGTVLVLTDWLGMIGHALEDTILKLVGDTPTWFYAKSLGFTPDTLIPDSAIDDFFDYIHKTNAGTLAWFVTLSLEGGAINSVSEDATAYGHRDVLFWFQVFVVNPLGPISQTTYDFTNGLYDVLAQAVPESAGHAYLGCPDPKMPDAQRAYWRSNLPRLEDLKGDLDPKDTFHNPQGVQVGP"}, "B8": {"name": "t861580 (protein)", "chain": "MGQTPSSPLADCLNAVCNGRDNCVAFPSAPLYQISWVDRYNLDIEVEPIAVTRPETAEDVSGFVKCAAAHNIKVQAKSGGHSYANYGLGGEDGELVVDLRNFQDFSIDTNTWQATFGAGHKLDDVTEKLHKNGKRAISHGTCPGVGIGGHATIGGLGPESRMWGSCLDHVIGVEVVTADGSIVHASDTENSDLFFALKGAGASFGIVTSFVVKTRPEPGSVVQYSYSVTFAKHADLSPVFRQWQELVMDPGLDRRFGTEFTMHELGVIISGTFYGTDEEFQATGIPDRIPKGKISVVFDDWMAVIAKHAEEAALSLSSISSAFTARSLAFRREDKISPETITNLMNYIDSADRGTLVWFLIFDATGGAISDVPTNATAYSHRDKVMYCQGYGVGIPTLNQQTKDFLSGIINTIQSGAGNTLTTYPGYVDPALTNPQESYWGPNIDTLRAIKSQWDPNDIFHNPQSVRPAAVAA", "modifications": "Monosporascus sp. mg162"}, "B9": {"name": "t861585 (protein)", "chain": "MGNTTSIAGRDCLVSALGGNAGLVAFQNQPLYQTTAVHEYNLNIPVTPAAITYPETAEQIAAVVKCASQYDYKVQARSGGHSFGNYGLGGTDGAVVVDMKYFNQFSMDDQTYEAVIGPGTTLGDVDVELYNNGKRAMAHGVCPTISTGGHFTMGGLGPTARQWGLALDHVEEVEVVLANSSIVRASNTQNQEVFFAVKGAAASFGIVTEFKVRTQPAPGIAVQYSYTFNLGSSAEKAQFIKDWQSFVSAKNLTRQFYTNMVIFDGDIILEGLFFGSKEQYEALRLEERFVPKNPGNILVLTDWLGMVGHALEDTILRLVGNTPTWFYAKSLGFTPDTLIPSSGIDEFFKYIENNKAGTSTWFVTLSLEGGAINDVPADATAYGHRDVLFWVQIFMVSPTGPVSSTTYDFADGLYNVLTKAVPESEGHAYLGCPDPKMANAQQKYWRQNLPRLEELKETLDPKDTFHNPQGILPA", "modifications": "N- and C-terminal signal peptides"}, "B10": {"name": "t861566 (protein)", "chain": "MGNTTSIAGRDCLVSALGGNSALAAFPNQLLWTADVHEYNLNLPVTPAAITYPETAEQIAGIVKCASDYDYKVQARSGGHSFGNYGLGGTDGAVVVDMKHFNQFSMNDQTYEAVIGPGTTLNDVDIELYNNGKRAMAHGVCPTIKTGGHFTIGGLGPTARQWGLALDHVEEVEVVLANSSIVRASNTQNQDVFFAVKGAAADFGIVTEFKVRTEPAPGLAVQYSYTFNLGSTAEKAQFVKDWQSFISAKNLTRQFYNNMVIFDGDIILEGLFFGSKEQYDALGLEDHFAPKNPGNILVLTDWLGMVGHALEDTILKLVGNTPTWFYAKSLGFRQDTLIPSAGIDEFFEYIANHTAGTPAWFVTLSLEGGAINDVAEDATAYAHRDVLFWVQLFMVNPLGPISETTYEFTDGLYDVLARAVPESVGHAYLGCPDPRMENAPQKYWRTNLPRLQELKEELDPKNTFHHPQGVIPA"}, "B11": {"name": "t861587 (protein)", "chain": "B10 chain"}, "B12": {"name": "t861561 (protein)", "chain": "MGNTTSIAAGRDCLISAVGGNAAHVAFQDQLLYQATAVDVYNLNIPVTPAAVTYPQSADEVAAVVKCASEYDYKVQARSGGHSFGNYGLGGQNGAIVVDMKHFSQFSMDESTYTATIGPGITLGDLDTELYNAGHRAMAHGICPTIRTGGHLTIGGLGPTARQWGLALDHVEEVEVVLANSSIVRASETQNQDVLFAVKGAAASFGIVTEFKVRTEQAPGLAVQYSYTFNLGTPAEKAKLLKDWQAFIAQEDLTWKFYSNMVIFDGQIILEGIFFGSKEEYDALDLEKRFPTSEPGTLLVLTDWLGMVGHSLEDVILRLVGNTPTWFYAKSLGFTPRTLIPDSAIDRFFDYIHETNAGTLAWFVTLSLEGGAINAVPEDATAYGHRDVLFWVQIFMVNPLGPISQTIYDFADGLYDVLAQAVPESAEHAYLGCPDPKMPDAQRAYWRGNLPRLEELKGEFDPKDTFHNPQGVSVAV"}}, "note": "Changes are numbered by the printed parent chain.", "data": [{"tested_on": "CBCA production", "assay": "In vivo TS activity assay, Example 4 CBCAS enzymes with and without signal peptides, no pH adjustment", "format": "cell-based", "details": "strains with (Y) or without (N) N-terminal and C-terminal signal peptides; no pH adjustment at Day 4; S. cerevisiae", "procedure": "An assay to detect TS activity was conducted as follows: each thawed glycerol stock of candidate CBCAS transformants was stamped into a well of YEP+4% dextrose media. Samples were incubated at 30° C. in a shaking incubator for 2 days. A portion of each of the resulting cultures was stamped into a well of YEP+4% galactose+1 mM olivetolic acid (FIG. 1 Structure 6a). Samples were incubated at 20° C. and shaken in a shaking incubator for 4 days. Every 24 hours during those 4 days, 2% galactose and 1 mM olivetolic acid were spiked into the cultures. Sodium citrate buffer adjusted to pH 5.5 was added to each well at a final concentration of 100 mM. Samples were incubated at 20° C. and shaken in a shaking incubator for 2 days. A portion of each of the resulting production cultures was stamped into a well of phosphate buffered saline (PBS). Optical measurements were taken on a plate reader, with absorbance measured at 600 nm and fluorescence at 528 nm with 485 nm excitation. Samples were incubated at 30° C. in a shaking incubator for 2 days. 100% methanol was stamped into the production cultures in half-height deepwell plates. Plates were heat sealed and frozen. Samples were then thawed for 30 min and spun down at 4° C. A portion of the supernatant was stamped into half-area 96 well plates. CBCA, THCA, and CBDA production in the samples was quantified via liquid chromatography-mass spectrometry (LC-MS).\nA library of 20 CBCAS enzymes selected from Example 1 and 3 was synthesized, including versions of the CBCAS enzymes with and without the N-terminal MFalpha2 signal peptide (SEQ ID NO: 16) and C-terminal HDEL signal peptide (SEQ ID NO: 17). Each candidate enzyme expression construct was transformed into an S. cerevisiae CEN.PK strain that also expressed a prenyltransferase enzyme capable of catalyzing reaction R^4 in FIG. 2. Strain t861555 expressing the A. niger CBCAS identified in Example 1, carrying both the Mfalpha2 and HDEL signal peptides was included in the library screen as a positive control for enzyme activity. Strain t861565 expressed the same A. niger CBCAS without the Mfalpha2 and HDEL signal peptides.\nThe strains were screened using the assay described in Example 1 with the following exception: at Day 4 samples were not subjected to a pH adjustment and a further 2 days of incubation at 20° C.", "units": {"Average CBCA": "µg/L"}, "values": [{"molecule": "B1", "Average CBCA": 95796.21}, {"molecule": "B2", "Average CBCA": 55852.93}, {"molecule": "B3", "Average CBCA": 27898.00}, {"molecule": "B4", "Average CBCA": 38142.03}, {"molecule": "B5", "Average CBCA": 54271.76}, {"molecule": "B6", "Average CBCA": 5334.71}, {"molecule": "B7", "Average CBCA": 57912.84}, {"molecule": "B8", "Average CBCA": 0.00}, {"molecule": "B9", "Average CBCA": 39673.45}, {"molecule": "B10", "Average CBCA": 61918.09}, {"molecule": "B11", "Average CBCA": 82883.01}, {"molecule": "B12", "Average CBCA": 46161.25}]}]}
